In patent US20220306762A1:

Tests used:
[1] = target: His-tagged mouse CD38 (ACRO Biosystems CD8-M5223) (mouse) (UniProt P56528); assay: ELISA, 1 ug/ml scFv-Fc, coated His-tagged CD38
[2] = target: His-tagged cynomolgus monkey CD38 (ACRO Biosystems, CD8-05223 [sic]) (cynomolgus monkey) (UniProt Q5VAN0); assay: ELISA, 1 ug/ml scFv-Fc, coated His-tagged CD38
[3] = target: His-tagged human CD38 (ACRO Biosystems CD8-H5224) (human) (UniProt P28907); assay: ELISA, 1 ug/ml scFv-Fc, coated His-tagged CD38
[4] = target: Human CD38 on transiently transfected Expi293 cells (Origene SC321273) (human) (UniProt P28907); assay: flow cytometry, 10 ug/ml scFv-Fc, transfected Expi293 cells
[5] = target: Murine CD38 on transiently transfected Expi293 cells (Origene MC208001) (murine) (UniProt P56528); assay: as above

Binder | ELISA signal [1] | ELISA signal [2] | ELISA signal [3] | FACS percent gated [4] [%] | FACS percent gated [5] [%]
40769p2.1.C1 scFv-Fc (scFv, part only; not given: Linker, domain order, Fc, V domains shown, not shown: another chain or arm of the molecule; a dimerising Fc or GST; small tags and cut ends) VH: EVQLLESGGGLVQPGGSLRLSCAASGFSFSDYWMNWVRQAPGKGLEWVSTISSGGNMIYYADSVKGRFTISRDNSKNTLYLRMNSLRAEDTAVYYCAKDNWNDYYGMDVWGQGTTVTVSS VL: QSVLTQPPSASGTPGQRVTISCSGSSSNIRDNYVYWYQQVPGTAPKLLIYKDDQRPSGVPDRFSGSKSGSSASLAISGLQSEDEADYYCATWDGSLNARVFGGGTKLTVL | 0.048 | 2.35 | 2.42 | 74.9 | 
40769p2.2.H4 scFv-Fc (scFv, part only; not given: Linker, domain order, Fc, V domains shown, not shown: another chain or arm of the molecule; a dimerising Fc or GST; small tags and cut ends) VH: EVQLLESGGGLVQPGGSLRLSCAASGFDFSSYWMNWVRQAPGKGLEWVSTISSGGSIIYYADSVKGQFTISRDNSKNTLYLQMNSLRAEDTAVYYCAKDNWNDYYGMDVWGQGTTVTVSS VL: QSVPTQPPSASGTPGQRVTISCSGSSSNIRDNYVYWYQQVPGTAPKLLIYKDDQRPSGVPDRFSGSKSGTSASLAISGLQSEDEADYYCATWDGSLNARVFGGGTKLTVL | 0.045 | 1.47 | 1.67 | 92.5 | 1.43
40769p2.1.E1 scFv-Fc (scFv, part only; not given: Linker, domain order, Fc, V domains shown, not shown: another chain or arm of the molecule; a dimerising Fc or GST; small tags and cut ends) VH: EVQLLESGGGLIQPGGSLRLSCTASGFDFSSYGMHWVRQAPGKGLEWVAIISDSGGTTYYGDSVKGRFTISRDNSKSTLYLQMNSLRAEDTALYYCASYIMDVWGQGTTVTVSS VL: QSVLTQPPSASGTPEQRVTISCSGSNSNVGDNAVYWYQQLPGTAPKLLFYGTNRRPSGVPDRFSGSKSGTSASLAISGLQSEDEADYYCAAWDDSLNAWVFGGGTKLTVL | 1.53 | 2.04 | 2.04 | 75.4 | 23.7
40769p2.2.D3 scFv-Fc (scFv, V domains shown) VH: EVQLLESGGGLIQPGGSLRLSCTASGFDFSSYGMHWVRQAPGKGLEWVGIISDSGGTTYYADSVKGRFTISRDNSKNTLYLQMNSLRAEDTALYYCASYIMDVWGQGITVTVSS VL: QSVLTQPPSASGTPGQRVTISCSGSNSNVGVNSVYWYQQLPGTAPKLLIYGSGRRPSGVPDRFSVSKSGTSASLAISGLQSEDEADYYCAAWDGGLNAWVFGGGTKLTVL | 0.044 |  |  |  | 
40769p2.1.H12 scFv-Fc (scFv, part only; not given: Linker, domain order, Fc, V domains shown, not shown: another chain or arm of the molecule; a dimerising Fc or GST; small tags and cut ends) VH: EVQLLESGGGLIQPGGSLRLSCTASGFDFSSYGMHWVRQAPGKGLEWVGIISDSGGTTYYADSVKGRFTISRDNSKNTLYLQMNSLRAEDTALYYCASYIMDVWGQGITVTVSS VL: QSVLTQPPSASGTPGQRVTISCSGSNSNVGVNSVYWYQQLPGTAPKLLIYGSGRRPSGVPDRFSVSKSGTSASLAISGLQSEDEADYYCAAWDDGLNAWVFGGGTKLTVL | 1.37 | 2.29 | 2.01 | 77.1 | 22.9
40769p2.1.G4 scFv-Fc (scFv, part only; not given: Linker, domain order, Fc, V domains shown, not shown: another chain or arm of the molecule; a dimerising Fc or GST; small tags and cut ends) VH: EVQLLESGGGLVQPGGSLRLSCAASGFTFTSHDMNWVRQAPGKGLEWVSTITTGGNTYYADSVKGRFTISRDNSKNTLYLQMTSLRAEDTAVYYCTKHYSMDVWGQGTTVTVSS VL: QSVLTQPPSASGTPGQRVTISCSGSTSNVVFNAVYWYQQLPGTAPKLLFYGKSQRPSGVPDRFSGSKSGTSASLAISGLQSEDEADYYCAAWDDTLNGWVFGGGTKLTVL | 2.1 | 2.31 | 1.81 | 77 | 42.4
40769p2.1.E8 scFv-Fc (scFv, part only; not given: Linker, domain order, Fc, V domains shown, not shown: another chain or arm of the molecule; a dimerising Fc or GST; small tags and cut ends) VH: EVQLLESGGGLVQPGGSLRLSCTGFGFTFTDARMSWVRQAPGKGLEWVADISSYGDNTYYADSVKGRFTISRDNSANTLYVQMNSLRAEDTAVYYCAKRMEREVMTIKLDYHAMDVWGQGTTVTVSS VL: QSVLTQTPSVSGTPGQRVTISCSGVFNIRNYVSWYQQLPGTAPKLLIFKDDQRPSGVPDRFSGSRSGTSASLAISGLQSEDEADYYCAAWDIFLNVWVFGGGTKLTVL | 0.046 | 2.16 | 1.79 | 75.7 | 1.99
40769p2.2.G3 scFv-Fc (scFv, part only; not given: Linker, domain order, Fc, V domains shown, not shown: another chain or arm of the molecule; a dimerising Fc or GST; small tags and cut ends) VH: EVQLLESGGGLVQPGGSLRLSCTASGITFSRFNMFWVRQAPGKGLEFVASIRDDGSWTYYADSVKGQFTISRDNSKNTLYLQMNSLRAEDTAVYYCAKDYSSKDFIYHYVMDVWGQGTTVTVSS VL: QSVLTQPPSASGTPGQRVTISCSGRNSNIGNNVVNWYQQLPGTAPKLLIYRNQERPSGVPDRFSGSKSGTSASLAISGLQSEDEADYYCASWDDSLNAWVFGRGTKLTVL | 0.044 | 1.46 | 1.7 | 92.1 | 1.46
40769p2.1.E5 scFv-Fc (scFv, part only; not given: Linker, domain order, Fc, V domains shown, not shown: another chain or arm of the molecule; a dimerising Fc or GST; small tags and cut ends) VH: EVQLLESGGGLVQPGGSLRLSCTASAHIFKYNWMSWVRQAPGKGLEWVSSINSDGTITYYTDSVKGRFTISRDNSKNTLYLQMNSLRAEDTAVYYCAKDNWNDYAIDVWGQGTTVTVSS VL: QSVLTQPPSASGTPGQRVTISCSGSRSDIRNNYVSWYQQLPGTAPKLLIYSNGQRPSGVPDRFSGSKSGTSASLAISGLQSEDEADYYCAIWDDSLNAWVFGGGTKLTVL | 0.045 | 2.1 | 1.96 | 76.3 | 3.13
